Laboratory results taken from IntAct's records for PubMed 31515488.

B1: Methylthioribulose-1-phosphate dehydratase (Homo sapiens), Q96GX9 (parent)
chain: MSGCDAREGDCCSRRCGAQDKEHPRYLIPELCKQFYHLGWVTGTGGGISLKHGDEIYIAPSGVQKERIQPEDMFVCDINEKDISGPSPSKKLKKSQCTPLFMNAYTMRGAGAVIHTHSKAAVMATLLFPGREFKITHQEMIKGIKKCTSGGYYRYDDMLVVPIIENTPEEKDLKDRMAHAMNEYPDSCAVLVRRHGVYVWGETWEKAKTMCECYDYLFDIAVSMKKVGLDPSQLPVGENGIV
partner: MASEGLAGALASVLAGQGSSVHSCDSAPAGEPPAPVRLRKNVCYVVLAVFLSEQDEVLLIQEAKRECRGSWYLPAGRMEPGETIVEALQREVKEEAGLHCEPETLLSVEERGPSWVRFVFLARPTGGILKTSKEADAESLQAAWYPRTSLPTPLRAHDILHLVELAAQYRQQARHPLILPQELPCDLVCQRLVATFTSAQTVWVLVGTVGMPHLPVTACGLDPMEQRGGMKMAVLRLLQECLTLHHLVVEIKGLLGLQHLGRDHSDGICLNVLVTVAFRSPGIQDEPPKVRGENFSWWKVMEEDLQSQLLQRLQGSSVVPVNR
B2: Potassium channel subfamily K member 1 (Homo sapiens), O00180 (parent)
chain: MLQSLAGSSCVRLVERHRSAWCFGFLVLGYLLYLVFGAVVFSSVELPYEDLLRQELRKLKRRFLEEHECLSEQQLEQFLGRVLEASNYGVSVLSNASGNWNWDFTSALFFASTVLSTTGYGHTVPLSDGGKAFCIIYSVIGIPFTLLFLTAVVQRITVHVTRRPVLYFHIRWGFSKQVVAIVHAVLLGFVTVSCFFFIPAAVFSVLEDDWNFLESFYFCFISLSTIGLGDYVPGEGYNQKFRELYKIGITCYLLLGLIAMLVVLETFCELHELKKFRKMFYVKKDKDEDQVHIIEHDQLSFSSITDQAAGMKEDQKQNEPFVATQSSACVDGPANH
partner: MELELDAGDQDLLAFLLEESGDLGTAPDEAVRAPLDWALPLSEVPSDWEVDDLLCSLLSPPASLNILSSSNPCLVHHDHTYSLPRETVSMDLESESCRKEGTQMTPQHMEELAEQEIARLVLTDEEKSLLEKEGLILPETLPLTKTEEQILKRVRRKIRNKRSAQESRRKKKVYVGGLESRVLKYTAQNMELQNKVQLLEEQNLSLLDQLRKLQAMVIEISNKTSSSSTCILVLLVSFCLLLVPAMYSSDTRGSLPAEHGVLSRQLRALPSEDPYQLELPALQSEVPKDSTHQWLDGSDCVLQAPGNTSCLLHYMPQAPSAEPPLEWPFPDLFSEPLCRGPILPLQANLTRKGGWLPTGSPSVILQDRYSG
B3: Centrosomal protein of 55 kDa (Homo sapiens), Q53EZ4 (parent)
chain: MSSRSTKDLIKSKWGSKPSNSKSETTLEKLKGEIAHLKTSVDEITSGKGKLTDKERHRLLEKIRVLEAEKEKNAYQLTEKDKEIQRLRDQLKARYSTTTLLEQLEETTREGERREQVLKALSEEKDVLKQQLSAATSRIAELESKTNTLRLSQTVAPNCFNSSINNIHEMEIQLKDALEKNQQWLVYDQQREVYVKGLLAKIFELEKKTETAAHSLPQQTKKPESEGYLQEEKQKCYNDLLASAKKDLEVERQTITQLSFELSEFRRKYEETQKEVHNLNQLLYSQRRADVQHLEDDRHKTEKIQKLREENDIARGKLEEEKKRSEELLSQVQFLYTSLLKQQEEQTRVALLEQQMQACTLDFENEKLDRQHVQHQLHVILKELRKARNQITQLESLKQLHEFAITEPLVTFQGETENREKVAASPKSPTAALNESLVECPKCNIQYPATEHRDLLVHVEYCSK
partner: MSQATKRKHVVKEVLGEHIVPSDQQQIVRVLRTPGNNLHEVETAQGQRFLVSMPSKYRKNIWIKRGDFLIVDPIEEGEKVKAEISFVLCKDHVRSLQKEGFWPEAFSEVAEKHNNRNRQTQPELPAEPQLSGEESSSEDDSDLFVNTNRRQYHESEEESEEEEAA
B4: Dickkopf-related protein 1 (Homo sapiens), O94907 (parent)
chain: MMALGAAGATRVFVAMVAAALGGHPLLGVSATLNSVLNSNAIKNLPPPLGGAAGHPGSAVSAAPGILYPGGNKYQTIDNYQPYPCAEDEECGTDEYCASPTRGGDAGVQICLACRKRRKRCMRHAMCCPGNYCKNGICVSSDQNHFRGEIEETITESFGNDHSTLDGYSRRTTLSSKMYHTKGQEGSVCLRSSDCASGLCCARHFWSKICKPVLKEGQVCTKHRRKGSHGLEIFQRCYCGEGLSCRIQKDHHQASNSSRLHTCQRH
B5: Cilium assembly protein DZIP1L (Homo sapiens), Q8IYY4 (parent)
chain: MQSPAATAEGLSGPLFGAYTFPTFKFQPRHDSMDWRRISTLDVDRVARELDVATLQENIAGITFCNLDREVCSRCGQPVDPALLKVLRLAQLIIEYLLHCQDCLSASVAQLEARLQTSLGQQQRGQQELGRQADELKGVREESRRRRKMISTLQQLLMQTGTHSYHTCHLCDKTFMNATFLRGHIQRRHAGVAEGGKQKKQEQPVEEVLEELRAKLKWTQGELEAQREAERQRQLQEAELIHQREIEAKKEFDKWKEQEWTKLYGEIDKLKKLFWDEFKNVAKQNSTLEEKLRALQSHSVMESKLGSLRDEESEEWLRQARELQALREKTEIQKTEWKRKVKELHEEHMAEKKELQEENQRLQASLSQDQKKAAAQSQCQISTLRAQLQEQARIIASQEEMIQSLSLRKVEGIHKVPKAVDTEEDSPEEEMEDSQDEQHKVLAALRRNPTLLKHFRPILEDTLEEKLESMGIRKDAKGISIQTLRHLESLLRVQREQKARKFSEFLSLRGKLVKEVTSRAKERQENGAVVSQPDGQPSVKSQQSTLVTREAQPKTRTLQVALPSTPAEPPPPTRQSHGSHGSSLTQVSAPAPRPGLHGPSSTPPSSGPGMSTPPFSSEEDSEGDRVQRVSLQPPKVPSRMVPRPKDDWDWSDTETSEENAQPPGQGSGTLVQSMVKNLEKQLEAPAKKPAGGVSLFFMPNAGPQRAATPGRKPQLSEDESDLEISSLEDLPLDLDQREKPKPLSRSKLPEKFGTGPQSSGQPRVPAW
B6: Docking protein 3 (Homo sapiens), Q7L591 (parent)
chain: MTRGARLRSDARAQLNQLSLDGGTGSGQKGKCEEFPSSLSSVSPGLEAAALLLAVTMDPLETPIKDGILYQQHVKFGKKCWRKVWALLYAGGPSGVARLESWEVRDGGLGAAGDRSAGPGRRGERRVIRLADCVSVLPADGESCPRDTGAFLLTTTERSHLLAAQHRQAWMGPICQLAFPGTGEASSGSTDAQSPKRGLVPMEENSIYSSWQEVGEFPVVVQRTEAATRCQLKGPALLVLGPDAIQLREAKGTQALYSWPYHFLRKFGSDKGVFSFEAGRRCHSGEGLFAFSTPCAPDLCRAVAGAIARQRERLPELTRPQPCPLPRATSLPSLDTPGELREMPPGPEPPTSRKMHLAEPGPQSLPLLLGPEPNDLASGLYASVCKRASGPPGNEHLYENLCVLEASPTLHGGEPEPHEGPGSRSPTTSPIYHNGQDLSWPGPANDSTLEAQYRRLLELDQVEGTGRPDPQAGFKAKLVTLLSRERRKGPAPCDRP

Variants of: B1
Details: with nud18_human NUDT18, Q6ZVK8

Variant | effect of a mutation on the interaction
G111A | with no effect
M181V | with no effect

Variants of: B2
Details: with creb3_human CREB3, O43889

Variant | effect of a mutation on the interaction
R171H | with no effect

Variants of: B3
Details: with eif1a_human EIF1AD

Variant | effect of a mutation on the interaction
H57Q | with no effect
R348K | with no effect
C236R | with no effect
A244P | with no effect

Variants of: B4
Details: with kr101_human KRTAP10-1, P60331
Chain of kr101_human KRTAP10-1, P60331 (P60331 whole entry): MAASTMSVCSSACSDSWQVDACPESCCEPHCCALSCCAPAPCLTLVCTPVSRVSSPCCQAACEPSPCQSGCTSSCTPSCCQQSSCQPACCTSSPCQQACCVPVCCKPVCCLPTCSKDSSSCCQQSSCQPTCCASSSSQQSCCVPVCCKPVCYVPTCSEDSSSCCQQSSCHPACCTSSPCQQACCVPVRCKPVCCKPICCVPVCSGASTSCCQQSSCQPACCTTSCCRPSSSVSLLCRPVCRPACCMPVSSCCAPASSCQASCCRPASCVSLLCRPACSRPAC

Variant | effect of a mutation on the interaction
S207Y | with no effect

Variants of: B4
Details: with mdfi_human MDFI

Variant | effect of a mutation on the interaction
S207Y | with no effect

Variants of: B5
Details: with cep76_human CEP76, Q8TAP6
Chain of cep76_human CEP76, Q8TAP6 (Q8TAP6 whole entry): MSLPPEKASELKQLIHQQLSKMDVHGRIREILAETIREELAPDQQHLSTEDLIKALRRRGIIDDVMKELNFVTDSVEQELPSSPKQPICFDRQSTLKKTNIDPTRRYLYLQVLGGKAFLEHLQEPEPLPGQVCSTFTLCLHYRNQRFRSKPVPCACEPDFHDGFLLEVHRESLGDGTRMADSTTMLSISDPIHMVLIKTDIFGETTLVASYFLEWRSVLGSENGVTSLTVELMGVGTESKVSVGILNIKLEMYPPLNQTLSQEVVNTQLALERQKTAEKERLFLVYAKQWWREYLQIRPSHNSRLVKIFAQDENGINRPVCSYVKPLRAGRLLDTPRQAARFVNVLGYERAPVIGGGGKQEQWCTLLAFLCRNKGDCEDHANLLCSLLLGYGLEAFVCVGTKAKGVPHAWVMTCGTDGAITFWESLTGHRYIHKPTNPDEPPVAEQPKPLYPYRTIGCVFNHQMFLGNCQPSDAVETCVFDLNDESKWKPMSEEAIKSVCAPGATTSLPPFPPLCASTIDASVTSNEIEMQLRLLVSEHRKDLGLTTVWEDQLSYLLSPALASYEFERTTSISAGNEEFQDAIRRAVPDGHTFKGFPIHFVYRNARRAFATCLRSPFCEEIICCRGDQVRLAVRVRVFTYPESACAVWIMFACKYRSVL

Variant | effect of a mutation on the interaction
G595E | with no effect
R88C | with no effect
R625H | with no effect

Variants of: B6
Details: with traf1_human TRAF1, Q13077
Chain of traf1_human TRAF1, Q13077 (Q13077 whole entry): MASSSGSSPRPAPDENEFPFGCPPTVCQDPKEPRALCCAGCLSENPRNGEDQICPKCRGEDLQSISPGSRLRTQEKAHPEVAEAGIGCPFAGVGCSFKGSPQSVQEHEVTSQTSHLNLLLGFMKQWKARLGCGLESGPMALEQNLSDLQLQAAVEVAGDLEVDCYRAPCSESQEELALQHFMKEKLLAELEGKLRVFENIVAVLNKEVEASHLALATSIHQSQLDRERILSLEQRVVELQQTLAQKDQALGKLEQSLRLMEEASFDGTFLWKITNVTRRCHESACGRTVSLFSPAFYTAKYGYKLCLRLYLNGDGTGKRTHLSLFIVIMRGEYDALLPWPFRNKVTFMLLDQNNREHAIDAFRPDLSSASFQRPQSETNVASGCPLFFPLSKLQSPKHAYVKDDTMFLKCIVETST

Variant | effect of a mutation on the interaction
R229H | with no effect
